Assay results reported in PMC10120838, “Dual functions of PsmiR172b-PsTOE3 module in dormancy release and flowering in tree peony (Paeonia suffruticosa)”.

B1: C-repeat probe of PsEBB1 (4x ACCGAC) (dsDNA)
DNA 1: AACCGACACCGACACCGACACCGAC
DNA 2: GTCGGTGTCGGTGTCGGTGTCGGTT
B2: mutant C-repeat probe (4x AGCGAC) (dsDNA)
DNA 1: AAGCGACAGCGACAGCGACAGCGAC
DNA 2: GTCGCTGTCGCTGTCGCTGTCGCTT

Target: PsTOE3 (MBP-PsTOE3; PsAP2 in primer table) (Paeonia suffruticosa, UniProt A0A189CP77 1-510)
Test: EMSA; poly(dI-dC); DIG Gel Shift Kit (Roche) per manufacturer, probe 0.155 uM, poly(dI-dC); protein suspended in 20 mM Tris-HCl, 0.2 M NaCl, 1 mM EDTA, 10 mM beta-mercaptoethanol; pH and temperature not stated
Conditions: protein: recombinant, purified on Ni-NTA, label: DIG, blunt

PsTOE3 (MBP-PsTOE3; PsAP2 in primer table), sequence (A0A189CP77 entry or part of it): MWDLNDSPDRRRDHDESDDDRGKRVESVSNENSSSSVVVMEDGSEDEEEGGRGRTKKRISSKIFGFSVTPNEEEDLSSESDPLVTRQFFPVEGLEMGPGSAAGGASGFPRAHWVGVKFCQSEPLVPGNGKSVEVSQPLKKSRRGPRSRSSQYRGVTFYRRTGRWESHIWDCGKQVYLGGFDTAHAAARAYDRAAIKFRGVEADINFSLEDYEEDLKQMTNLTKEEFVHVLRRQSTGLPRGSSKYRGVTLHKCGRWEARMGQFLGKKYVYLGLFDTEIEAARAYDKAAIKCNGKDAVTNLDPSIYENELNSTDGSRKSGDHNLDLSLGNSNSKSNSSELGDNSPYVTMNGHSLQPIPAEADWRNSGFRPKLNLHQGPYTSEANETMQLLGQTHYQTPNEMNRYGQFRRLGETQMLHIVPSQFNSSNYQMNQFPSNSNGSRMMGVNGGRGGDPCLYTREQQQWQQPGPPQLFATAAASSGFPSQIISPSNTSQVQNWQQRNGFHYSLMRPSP

| Binder | binding result (R oligo S209 is printed as the plain complement (3'-5' order) although the header says 5'-3') | binding result (R oligo S211 is printed as the plain complement (3'-5' order) although the header says 5'-3') |
| --- | --- | --- |
| B1 | binds |  |
| B2 |  | no binding |
